# In US20120277143A1 (Janssen / Centocor, published 2012):
# Numbering of substitutions follows the chain as printed.
# B1: 5D12 (designed binder)
# chain: DLGKKLLEAARAGQDDEVRILMANGADVNAVDDYGSTPLHLAARQGHLEIVEVLLKNGADVNADDFIGDTPLHLAAFKGHLEIVEVLLKNGADVNASDITGETPLHLAATAGHLEIVEVLLKHGADVNAQDKFGKTAFDISIDNGNEDLAEILQKLN
# notes: N-Cap-(AR)3-C-Cap
# B2: 5H7 (designed binder)
# chain: DLGKKLLEAARAGQDDEVRILMANGADVNAADMYGTTPQHLAARTGHLEIVEVLLKYGADVNAADFLGDTPLHLAAYHGHLEIVEVLLKHGADVNASDITGETPLHLAAHLGHLEIVEVLLKYGADVNAQDKFGKTAFDISIDNGNEDLAEILQKLN
# notes: N-Cap-(AR)3-C-Cap
# B3: 7C6 (designed binder)
# chain: DLGKKLLEAARAGQDDEVRILMANGADVNAMDKYGSTPLHLAARSGHLEIVEVLLKHGADVNATDFIGDTPLHLAAYHGHLEIVEVLLKHGADVNAEDITGETPLHLAAESGHLEIVEVLLKHGADVNAQDKFGKTAFDISIDNGNEDLAEILQKLN
# notes: N-Cap-(AR)3-C-Cap
# B4: 6D4 (designed binder)
# chain: B3 chain with M31A, K33D, T64N, H78N, H90N, E97T, S111R, H123N, A129T
# notes: N-Cap-(AR)3-C-Cap
# B5: 7D2 (designed binder)
# chain: DLGKKLLEAARAGQDDEVRILMANGADVNAFDDFGSTPLHLAARSGHLEIVEVLLKHGADVNAHDMIGDTPLHLAAYHGHLEIVEVLLKYGADVNAKDTSGTTPLHLAADSGHLEIVEVLLKHGADVNAQDKFGKTAFDISIDNGNEDLAEILQKLN
# notes: N-Cap-(AR)3-C-Cap
# B6: 6G11 (designed binder)
# chain: DLGKKLLEAARAGQDDEVRILMANGADVNAEDILGITPLHLAAHHGHLEIVEVLLKHGADVNANDFAGYTPLHLAAVYGHLEIVEVLLKYGADVNATDAWGETPLHLAAYTGHLEIVEVLLKHDADVNAQDKFGKTAFDISIDNGNEDLAEILQKLN
# notes: N-Cap-(AR)3-C-Cap
# B7: 10A6 (designed binder)
# chain: DLGKKLLEAARAGQDDEVRILMANGADVNAIDHFDSTPLHLAARHGHLEIVEVLLKNGADVNADDFLGDTPLHLAAYHGHLDIVEVLLKHGADVNAQDKFGKTAFDISIDNGNEDLAEILQKLN
# notes: N-Cap-(AR)2-C-Cap, only 2 ARs
# B8: 9E11 (designed binder)
# chain: B2 chain with A31S, M33I, T36S, Q39L, T45H, Y57N, A64N, F66M, L67I, L111N
# notes: N-Cap-(AR)3-C-Cap
# B9: 5B9 (designed binder)
# chain: DLGKKLLEAARAGQDDEVRILMANGADVNATDVFGSTPLHLAARHGHLEIVEVLLKHGADVNATDFIGDTPLHLAAYHGHLEIVEVLLKHGADVNAKNGETPLHLAAYHGHPDIVEVLLKHGADVNAQDKFGKTAFDISIDNGNEDLAEILQKLN
# notes: N-Cap-(AR)3-C-Cap
# B10: C06_6E9 (designed binder)
# chain: DLGKKLLEAARAGQDDEVRILMANGADVNAIDSDGTTPLHLAAMDGHLEIVEVLLKYGADVNAVDWNGDTPLHLAAVDGHLEIVEVLLKYGADVNAQDNLGDTPLHLAAYYGHLEIVEVLLKHGADVNASDFHGITPLHLAAFSGHLEIVEVLLKYGADVNAQDKFGKTAFDISIDNGNEDLAEILQKLN
# notes: ankyrin repeat protein; His-tagged, IMAC-purified
# B11: C06_53G6 (designed binder)
# chain: NLGKKLLEAARAGQDDEVRILMANGADVNATDDWGDTLLHLAATDGHLEIVEVLLKYGADVNANDAIGDTPLHLAALYGHLEIVEVLLKYGADVNATDLHGFTPLHLAAFWGHLEIVEVLLKHGADVNAQDKFGKTAFDISIDNGNEDLAEILQKLN
# notes: as for B10
# Molecular target: T1, human IL13 (human, UniProt P35225 35-146, biotinylated in the SPR assays (sites not given))
# T1 sequence (P35225 other isoform, or with tags, fused parts or gaps limits assumed): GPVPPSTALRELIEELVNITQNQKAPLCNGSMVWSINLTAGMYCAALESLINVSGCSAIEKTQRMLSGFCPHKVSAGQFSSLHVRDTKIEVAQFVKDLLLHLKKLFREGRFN
# Experiment: cell-based or functional assay
Binder,STAT6 Phospho IC50 [nM],TARC expression IC50 [nM]
B1,0.0054,0.0341
B2,0.0429,0.132
B3,0.0027,0.159
B4,0.0042,0.0833
B5,0.0048,0.0146
B6,0.0198,0.282
B7,0.008,0.123
B8,0.0009,0.109
B9,0.0165,0.372

# Molecular target: cyno IL13 (cynomolgus monkey, UniProt Q0PW92 21-132)
# Sequence (Q0PW92 entry or part of it): as the sequence (P35225 other isoform, or with tags, fused parts or gaps limits assumed) above, with G1S, R10K, M42V, S67N, H83R, L100V, R110Q counted along it
# Experiment: cell-based or functional assay
row,Binder,Cyno IL13 STAT6 IC50 [nM]
1,B1,0.159
2,B2,0.527
3,B3,0.048
4,B4,0.0513
5,B5,0.307
6,B6,1.21
7,B7,1.93
8,B8,0.0334
9,B9,0.653

# Molecular target: T1, human IL13
# Experiment: SPR BIAcore, biotin-IL13 on SA chip, global fit
# Description: Recombinant human IL13 (Peprotech) was minimally biotinylated on ice using sulfo-NHS-LCLC-Biotin and desalted into the experimental running buffer containing 10 mM HEPES, 150 mM NaCl, pH 7.4, 0.01% Tween-20, and 0.1 mg/mL BSA. Biotinylated IL13 was captured at three different surface densities (from about 150, 50, and 25 RU) onto three different BIAcore SA (streptavidin) sensor chips. Each binding protein sample was tested at 40 nM as the highest concentration in a 3-fold dilution series over the three different density IL13 surfaces. The dissociation phase for the highest concentration of the binding protein sample was monitored for one hour. The response data from each of the different density surfaces was globally fitted in order to extract estimates of the kinetic and affinity constants which are provided in Table 7 below.
Binder,Kd [nM],koff [s⁻¹],kon [M⁻¹ s⁻¹]
B1,0.168,0.000184,1.1e+06
B2,0.263,0.000894,3.4e+06
B3,0.0464,0.000224,4.82e+06
B4,0.0776,9.08e-05,1.17e+06
B5,0.0955,0.000292,3.06e+06
B6,0.106,8e-05,754000
B7,0.0729,0.000201,2.76e+06
B8,0.021,1.3e-05,640000
B9,0.169,0.000179,1.06e+06

# Molecular target: T2, human IL4 (human, UniProt P05112 25-153, biotinylated in the SPR and competition assays (sites not given))
# T2 sequence: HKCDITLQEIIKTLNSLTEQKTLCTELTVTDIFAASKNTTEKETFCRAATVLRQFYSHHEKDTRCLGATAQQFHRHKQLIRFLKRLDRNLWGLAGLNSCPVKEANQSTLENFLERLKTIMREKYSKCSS
# Experiment: cell-based or functional assay
Binder,A549 TARC Inhibition IC50 [nM],HEK Stat6 Inhibition IC50 [nM],Type 1 Complex inhibition IC50 [nM]
B10,0.131,0.0006,0.0004
B11,0.135,0.0021,0.0009

# Molecular target: T3, human IL13 R130Q (human, UniProt P35225 35-146, biotinylated (sites not given))
# T3 construct: Peprotech; also called IL13R13Q; R111Q
# T3 sequence (P35225 35-146 limits assumed, stated change not applied): as the sequence (P35225 other isoform, or with tags, fused parts or gaps limits assumed) above, with R110Q counted along it
# Experiment: Luminex competition, 80 pM biotin-IL13 R130Q binding to IL13Ra2-Fc beads
# Description: Binding protein inhibition of IL13 binding to Rα2 was assessed using IL13Rα2-Fc (R&D Systems) conjugated to carboxylated Luminex microspheres according to the manufacturer's protocol. For biotinylation of IL13, recombinant human IL13 R130Q (Peprotech) was biotinylated at a 4:1 ratio using EZ-Link NHS-LC-Biotin (Pierce, #21336) for 2 hours at RT. The protein was dialyzed in PBS overnight to remove excess biotinylation reagent. For neutralization experiments, 5000 IL13 Rα2-Fc conjugated beads in 50 μl were added to each well of a 96-well filter plate (Millipore). 50 μl of biotinylated human IL13 at 1 ng/ml (80 pM) was mixed with an appropriate dilution of binding protein in Luminex Assay Buffer (PBS, 1% BSA, pH 7.4). The plate was incubated for 1 hour at RT in the dark on a plate shaker, set to shake vigorously to avoid bead aggregation. The plate was washed 3 times with 150 μl of wash buffer (PBS, 1% BSA, pH 7.4, 0.05% Tween-20) using a vacuum manifold followed by the addition of 50 μl of Streptavidin PE at 25 μg/ml and incubated at RT for 20 minutes. The plates were washed again and 100 μl of sheath fluid was added and the plate was placed on the shaker for 1 minute. Plates were read using a Luminex® 100 system; data were plotted as a function of binding protein concentration. IC₅₀ values were determined by fitting the data to the equation for sigmoidal dose response using PRIZM software (GraphPAD PRIZM).
row,Binder,IC50 [nM]
1,B1,0.0102
2,B2,0.158
3,B3,0.0106
4,B4,0.0048
5,B5,0.0083
6,B6,0.0101
7,B7,0.0075
8,B8,0.0058
9,B9,0.0134

# Molecular target: T2, human IL4
# Experiment: Luminex competition, 67 pM biotin-IL4 binding to IL4RA-Fc beads
# Description: For biotinylation of IL4, recombinant human IL4 (Peprotech) was biotinylated at a 4:1 ratio using EZ-Link NHS-LC-Biotin (Pierce, #21336) for 2 hours at RT. The protein was dialyzed in PBS overnight to remove excess biotinylation reagent. Competition binding for cynomologous IL4 (SEQ ID NO: 5) was performed using the isolated protein biotinylated in the same manner.
# AR protein inhibition of IL4 binding to IL4 RA was assessed using IL4 RA-Fc (R&D Systems), comprising the Gly24-His232 which represents the ECD (SEQ ID NO: 5) fused to a human IgGl-Fc and therefor a disulfide linked homodimer. The protein was conjugated to carboxylated Luminex microspheres according to the manufacturer's protocol. For neutralization experiments, 5000 IL4RA-Fc conjugated beads in 50 μl were added to each well of a 96-well filter plate (Millipore). Biotinylated human IL4 was mixed with an appropriate dilution of AR protein in Luminex Assay Buffer (PBS, 1% BSA, pH 7.4) to give a final concentration of 67 pM IL4. The plate was incubated for 1 hour at RT in the dark on a plate shaker, set to shake vigorously to avoid bead aggregation. The plate was washed twice with 150 μl of wash buffer (PBS, 0.1% BSA, pH 7.4, 0.05% Tween-20) using a vacuum manifold followed by the addition of 50 μl of Streptavidin PE at 25 μg/ml and incubated at RT for 20 minutes. The plates were washed again and 150 μl of sheath fluid was added and the plate was placed on the shaker for 5 minute. Plates were read using a Luminex® 100 system; data were plotted as a function of AR protein concentration. IC₅₀ values were determined by fitting the data to the equation for sigmoidal dose response using PRISM software (GraphPAD PRISM) (Table 6).
row,Binder,IC50 [nM]
1,B10,0.0076
2,B11,0.0161

# Molecular target: T2, human IL4
# Experiment: SPR ProteOn, biotin-IL4 on neutravidin chip, 1:1 fit
# Description: Purified binders selected as “hits” were ranked by their affinity on a ProteOn XPR-36 instrument (Bio-Rad). ProteOn is an optical biosensor instrument that measures protein-protein interactions in real time, based on Surface Plasmon Resonance technology similar to Biacore (GE). A rapid experimental protocol was performed as follows: On a GLC sensor chip (Bio-Rad), Neutravidin (Thermo Scientific) was covalently immobilized to a density of >5000 RU using amine coupling chemistry as described by the manufacturer. On one flow cell, biotinylated IL4 (Peprotech) was immobilized to a level of 250 RU, while another flow cell was used as reference, with neutravidin immobilized only. […] The retrieved values were used to rank the AR proteins by their affinity.
Binder,Kd [nM],koff [s⁻¹],kon [M⁻¹ s⁻¹]
B10,0.0749,7.16e-05,956000
B11,0.0734,5.11e-05,696000
